The results in this text go back to US20250215412A1 (NOVOZYMES A S, published 2025).

The experiment deals with T1, Chryseobacterium sp-62563 deamidase polypeptide (second polypeptide, deamidase domain), wildtype (Chryseobacterium sp-62563).
T1 sequence: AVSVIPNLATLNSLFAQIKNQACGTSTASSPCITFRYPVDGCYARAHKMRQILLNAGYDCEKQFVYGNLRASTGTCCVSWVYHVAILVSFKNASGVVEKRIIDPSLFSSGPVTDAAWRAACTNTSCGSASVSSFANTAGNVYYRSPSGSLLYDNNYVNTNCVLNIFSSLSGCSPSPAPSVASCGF
Kind of experiment: cell-based or functional assay.

B1: Chryseobacterium sp-62563 propeptide Y94Q (protein)
chain: NQDPNLVAKESNETAMKDFGKTVPVGIEKEDGKFKISFMVTAQPYEIKDSKENAAYISMIKTAVENETPIHVFLKANTNEIAKVDKATDDDIRQFKSVFTKEVKEENRK
As to B1, the Leakage activity stood at 0%.

B2: Chryseobacterium sp-62563 propeptide V98T (protein)
chain: NQDPNLVAKESNETAMKDFGKTVPVGIEKEDGKFKISFMVTAQPYEIKDSKENAAYISMIKTAVENETPIHVFLKANTNEIAKVDKATDDDIRYFKSTFTKEVKEENRK
For the molecule B2, the Relative activity of maturated deamidase (% initial rate) amounted to 70.

B3: Chryseobacterium sp-62563 propeptide F99H (protein)
chain: NQDPNLVAKESNETAMKDFGKTVPVGIEKEDGKFKISFMVTAQPYEIKDSKENAAYISMIKTAVENETPIHVFLKANTNEIAKVDKATDDDIRYFKSVHTKEVKEENRK
For the molecule B3, the Relative activity of maturated deamidase (% initial rate) is over 100.

B4: Chryseobacterium sp-62563 propeptide P69L (protein)
chain: NQDPNLVAKESNETAMKDFGKTVPVGIEKEDGKFKISFMVTAQPYEIKDSKENAAYISMIKTAVENETLIHVFLKANTNEIAKVDKATDDDIRYFKSVFTKEVKEENRK
In turn, B4 showed a NanoDSF thermal unfolding temperature of 81.5 ° C and a Relative activity of maturated deamidase (% initial rate) of 43.

B5: Chryseobacterium sp-62563 propeptide F99L (protein)
chain: NQDPNLVAKESNETAMKDFGKTVPVGIEKEDGKFKISFMVTAQPYEIKDSKENAAYISMIKTAVENETPIHVFLKANTNEIAKVDKATDDDIRYFKSVLTKEVKEENRK
B5 gave a Relative activity of maturated deamidase (% initial rate) of 46.

B6: Chryseobacterium sp-62563 propeptide F95G (protein)
chain: NQDPNLVAKESNETAMKDFGKTVPVGIEKEDGKFKISFMVTAQPYEIKDSKENAAYISMIKTAVENETPIHVFLKANTNEIAKVDKATDDDIRYGKSVFTKEVKEENRK
B6 gave a Leakage activity of 0% and a Relative activity of maturated deamidase (% initial rate) of 91.

B7: Chryseobacterium sp-62563 propeptide F99K (protein)
chain: NQDPNLVAKESNETAMKDFGKTVPVGIEKEDGKFKISFMVTAQPYEIKDSKENAAYISMIKTAVENETPIHVFLKANTNEIAKVDKATDDDIRYFKSVKTKEVKEENRK
In turn, B7 gave a Leakage activity of 4%, a NanoDSF thermal unfolding temperature of 75.4 ° C and a Relative activity of maturated deamidase (% initial rate) of over 100.

B8: Chryseobacterium sp-62563 propeptide Y94T (protein)
chain: NQDPNLVAKESNETAMKDFGKTVPVGIEKEDGKFKISFMVTAQPYEIKDSKENAAYISMIKTAVENETPIHVFLKANTNEIAKVDKATDDDIRTFKSVFTKEVKEENRK
B8 returned a Leakage activity of 0% and a Relative activity of maturated deamidase (% initial rate) of over 100.

B9: Chryseobacterium sp-62563 propeptide V98Y (protein)
chain: NQDPNLVAKESNETAMKDFGKTVPVGIEKEDGKFKISFMVTAQPYEIKDSKENAAYISMIKTAVENETPIHVFLKANTNEIAKVDKATDDDIRYFKSYFTKEVKEENRK
In turn, B9 yielded a Leakage activity of 0% and a Relative activity of maturated deamidase (% initial rate) of 31.

B10: Chryseobacterium sp-62563 propeptide F99W (protein)
chain: NQDPNLVAKESNETAMKDFGKTVPVGIEKEDGKFKISFMVTAQPYEIKDSKENAAYISMIKTAVENETPIHVFLKANTNEIAKVDKATDDDIRYFKSVWTKEVKEENRK
The molecule B10 displayed a Relative activity of maturated deamidase (% initial rate) of 81.

B11: Chryseobacterium sp-62563 propeptide V98P (protein)
chain: NQDPNLVAKESNETAMKDFGKTVPVGIEKEDGKFKISFMVTAQPYEIKDSKENAAYISMIKTAVENETPIHVFLKANTNEIAKVDKATDDDIRYFKSPFTKEVKEENRK
B11 returned a Leakage activity of 2% and a Relative activity of maturated deamidase (% initial rate) of over 100.

B12: Chryseobacterium sp-62563 propeptide F99Y (protein)
chain: NQDPNLVAKESNETAMKDFGKTVPVGIEKEDGKFKISFMVTAQPYEIKDSKENAAYISMIKTAVENETPIHVFLKANTNEIAKVDKATDDDIRYFKSVYTKEVKEENRK
B12: the Relative activity of maturated deamidase (% initial rate) amounted to 85.

B13: Chryseobacterium sp-62563 propeptide V98R (protein)
chain: NQDPNLVAKESNETAMKDFGKTVPVGIEKEDGKFKISFMVTAQPYEIKDSKENAAYISMIKTAVENETPIHVFLKANTNEIAKVDKATDDDIRYFKSRFTKEVKEENRK
Regarding B13, the Relative activity of maturated deamidase (% initial rate) is over 100.

B14: Chryseobacterium sp-62563 propeptide P69G (protein)
chain: NQDPNLVAKESNETAMKDFGKTVPVGIEKEDGKFKISFMVTAQPYEIKDSKENAAYISMIKTAVENETGIHVFLKANTNEIAKVDKATDDDIRYFKSVFTKEVKEENRK
For the molecule B14, the NanoDSF thermal unfolding temperature was determined as 77 ° C and the Relative activity of maturated deamidase (% initial rate) came to 35.

B15: Chryseobacterium sp-62563 propeptide F99V (protein)
chain: NQDPNLVAKESNETAMKDFGKTVPVGIEKEDGKFKISFMVTAQPYEIKDSKENAAYISMIKTAVENETPIHVFLKANTNEIAKVDKATDDDIRYFKSVVTKEVKEENRK
On to B15, for which the Relative activity of maturated deamidase (% initial rate) was over 100.

B16: Chryseobacterium sp-62563 propeptide V98Q (protein)
chain: NQDPNLVAKESNETAMKDFGKTVPVGIEKEDGKFKISFMVTAQPYEIKDSKENAAYISMIKTAVENETPIHVFLKANTNEIAKVDKATDDDIRYFKSQFTKEVKEENRK
The molecule B16 came in with a Relative activity of maturated deamidase (% initial rate) of over 100.

B17: Chryseobacterium sp-62563 propeptide F99D (protein)
chain: NQDPNLVAKESNETAMKDFGKTVPVGIEKEDGKFKISFMVTAQPYEIKDSKENAAYISMIKTAVENETPIHVFLKANTNEIAKVDKATDDDIRYFKSVDTKEVKEENRK
The molecule B17 gave a Leakage activity of 9% and a Relative activity of maturated deamidase (% initial rate) of 69.

B18: Chryseobacterium sp-62563 propeptide Y45R (protein)
chain: NQDPNLVAKESNETAMKDFGKTVPVGIEKEDGKFKISFMVTAQPREIKDSKENAAYISMIKTAVENETPIHVFLKANTNEIAKVDKATDDDIRYFKSVFTKEVKEENRK
With B18, the NanoDSF thermal unfolding temperature was determined as 78.1 ° C.

B19: Chryseobacterium sp-62563 propeptide P69D (protein)
chain: NQDPNLVAKESNETAMKDFGKTVPVGIEKEDGKFKISFMVTAQPYEIKDSKENAAYISMIKTAVENETDIHVFLKANTNEIAKVDKATDDDIRYFKSVFTKEVKEENRK
B19: the NanoDSF thermal unfolding temperature came out at 70.6 ° C and the Relative activity of maturated deamidase (% initial rate) was found to be 82.

B20: Chryseobacterium sp-62563 propeptide Y45I (protein)
chain: NQDPNLVAKESNETAMKDFGKTVPVGIEKEDGKFKISFMVTAQPIEIKDSKENAAYISMIKTAVENETPIHVFLKANTNEIAKVDKATDDDIRYFKSVFTKEVKEENRK
In turn, B20 registered a NanoDSF thermal unfolding temperature of 76.4 ° C and a Relative activity of maturated deamidase (% initial rate) of over 100.

B21: Chryseobacterium sp-62563 propeptide F95D (protein)
chain: NQDPNLVAKESNETAMKDFGKTVPVGIEKEDGKFKISFMVTAQPYEIKDSKENAAYISMIKTAVENETPIHVFLKANTNEIAKVDKATDDDIRYDKSVFTKEVKEENRK
The molecule B21 came in with a Leakage activity of 7% and a Relative activity of maturated deamidase (% initial rate) of 44.

B22: Chryseobacterium sp-62563 propeptide F99C (protein)
chain: NQDPNLVAKESNETAMKDFGKTVPVGIEKEDGKFKISFMVTAQPYEIKDSKENAAYISMIKTAVENETPIHVFLKANTNEIAKVDKATDDDIRYFKSVCTKEVKEENRK
Turning to B22, the Leakage activity came out at 0% and the Relative activity of maturated deamidase (% initial rate) worked out at 52.

B23: Chryseobacterium sp-62563 propeptide F99I (protein)
chain: NQDPNLVAKESNETAMKDFGKTVPVGIEKEDGKFKISFMVTAQPYEIKDSKENAAYISMIKTAVENETPIHVFLKANTNEIAKVDKATDDDIRYFKSVITKEVKEENRK
On to B23, for which the Relative activity of maturated deamidase (% initial rate) was determined as 33.

B24: Chryseobacterium sp-62563 propeptide V98N (protein)
chain: NQDPNLVAKESNETAMKDFGKTVPVGIEKEDGKFKISFMVTAQPYEIKDSKENAAYISMIKTAVENETPIHVFLKANTNEIAKVDKATDDDIRYFKSNFTKEVKEENRK
In turn, B24 gave a Relative activity of maturated deamidase (% initial rate) of over 100.

B25: Chryseobacterium sp-62563 propeptide Y45M (protein)
chain: NQDPNLVAKESNETAMKDFGKTVPVGIEKEDGKFKISFMVTAQPMEIKDSKENAAYISMIKTAVENETPIHVFLKANTNEIAKVDKATDDDIRYFKSVFTKEVKEENRK
B25 came in with a NanoDSF thermal unfolding temperature of 79 ° C and a Relative activity of maturated deamidase (% initial rate) of 40.

B26: Chryseobacterium sp-62563 propeptide F99R (protein)
chain: NQDPNLVAKESNETAMKDFGKTVPVGIEKEDGKFKISFMVTAQPYEIKDSKENAAYISMIKTAVENETPIHVFLKANTNEIAKVDKATDDDIRYFKSVRTKEVKEENRK
For the molecule B26, the Leakage activity stood at 0% and the Relative activity of maturated deamidase (% initial rate) was 76.

B27: Chryseobacterium sp-62563 propeptide V98S (protein)
chain: NQDPNLVAKESNETAMKDFGKTVPVGIEKEDGKFKISFMVTAQPYEIKDSKENAAYISMIKTAVENETPIHVFLKANTNEIAKVDKATDDDIRYFKSSFTKEVKEENRK
With B27, the Relative activity of maturated deamidase (% initial rate) is 98.

B28: Chryseobacterium sp-62563 propeptide F99Q (protein)
chain: NQDPNLVAKESNETAMKDFGKTVPVGIEKEDGKFKISFMVTAQPYEIKDSKENAAYISMIKTAVENETPIHVFLKANTNEIAKVDKATDDDIRYFKSVQTKEVKEENRK
In turn, B28 came in with a Leakage activity of 4% and a Relative activity of maturated deamidase (% initial rate) of 48.

B29: Chryseobacterium sp-62563 propeptide F99P (protein)
chain: NQDPNLVAKESNETAMKDFGKTVPVGIEKEDGKFKISFMVTAQPYEIKDSKENAAYISMIKTAVENETPIHVFLKANTNEIAKVDKATDDDIRYFKSVPTKEVKEENRK
Molecule B29 displayed a Relative activity of maturated deamidase (% initial rate) of 33.
